In US20240026407A1, “MODIFICATION OF SAPONINS” (GLAXOSMITHKLINE BIOLOGICALS SA, priority 2020, published 2024):

B1: 886 (protein, listed as Brachyspira suanatina)
chain: MNDNKYSQKIKELMKEMTLEEKVSLLSGKDFWSTKAIDRLKIDSVYLTDGPHGVRKQSTESDELSLQKSVSSTCFPTACCSACSFDPNIMYEMGEAISREAKANKVSVVLGPGVNIKRSPLCGRNFEYFSEDPYLAGKMASGWINGLEDNGIQSSLKHFAANNQETLRLIIDSVVDERALREIYLYAFEIAVKEAKPSTVMCAYNSVNGTFASENKYLLTDILRDEWGFDGIVVSDWGAVNDRVEALKAGLDLQMPSTNGEDDRKVYNAVKETIIDEKILDKAVERLLYFSLYSMDNIYDNFDYDKEEHHNIARKIAENSIVLLKNQDKILPAKKESKIAVIGEFAQKPRYQGNGSSLINAYKIDTAEEYFKENNIEFDYAKGYDSNSADIDNALIEEAVNISKDKDIVIIFAGLINSYESEGFDRKHLNLPENHNHLIEEISKVNKNVVVVLSIGAPVLMPWIDKVKGVLNLYLAGEAAVSAAFNIIFGVVNPSGKLAESFPLSLEDNPSYKYFPGGNKAVEYRESIFVGYRYYDKAQKNVLFPFGFGLSYTTFQFSNLIVSDANTIAGLDNIHVVFDIKNTGDVFGCEVAQVYISAPENNVFKPHKELKSFIKVFLEPGETKTVILKLNKRSFSFYNADTKQYEIESGVYTIYIGNSSRNLLLSKTMEINSINYYQKRIDNYFNFKEINISDNEFQQLLGRKLKPINIKASKPYHLNNNLSDLLDNNIAKEFYNKLLSGLNDMFKDDKTDTKKMFESMMLETPLRSLHTMSGGIITREDVENLINTLNK
B2: 814 (protein, listed as Bifidobacterium reuteri)
chain: MSETNATPTYPSVKDLTLEEKASLTSGGDAWHLQSVEHKGIPGYMITDGPHGLRKSLASNTSETDLNDSVPATCFPPAAGLSSSWNPALIRKVGEVMGEECVQEKVAVILGPGVNIKRNPLGGRCFEYWSEDPYLAGHEAVGIVEGVQSKGVGTSLKHFAANNQETDRLRVDARISQRALREIYLPAFEHIVKTAQPWTIMCSYNRINGVHSAQNHWLLTDVLRDEWGFKGIVMSDWGADHDRVASLNAGLNLEMPPSYTDDQIVYAARDGRIDPAQLDRMAQGMIDLTNKARAAMSIDGYRFDVDAHDEVARQAAVESIVMLKNEDAILPIDPAGGKKLAVIGEFARTPRYQGGGSSHITPTKMTSFLDALDERGIKADFAPGFTLDLAPADSALTLEAVETARDADVVLMFLGLPEEAESEGFDRTTLDIPAKQIELLRQVAAENPNVVVVLSNGSVVTVHPWADASKSILESWLLGQAGGRALADVVFGEASPSGKLAQSIPMDINDDPSMLNWPGEEGHVDYGEGVFVGYRYYDTYNKAVDYPFGYGLSYATFEIGDVAVAKTGANTASVTATVTNTSDTPAAETVQVYVAPGKADVARPVHELKGFEKVFLGAGESKTVTIELNERAFAYWSEKYNDWHVEAGEYTVEVGVSSRDIAASIAVTLDGDGKSMPLNEWSTFGEWSADPVGAKVVEAVGAAGERGDMPKLPDNDMMRLFLNSMPINSLPTLLGESGKDLTAFMLDEYAALTK
B3: 853 (protein, listed as Clostridium oryzae)
chain: MKRDIKEIVSKMTLEEKAGLCSGLDFWHTKGVERLGVPSIMVTDGPHGLRKQDTSADHLGINDSVPATCFPSGATLACSWDRSLLQKVGTALGEECQAEGVSVILGPAANIKRSPLCGRNFEYFSEDPYLSTEMAANHIKGVQSQGVGTSLKHFAVNNQEHRRLSVDAEVDERTLREIYLASFEGAVKQSQPWTVMCSYNKVNGTYASENEYLLTSILKEEWGHEGFVMSDWGAVDRRENALKAGLELEMPSSNGIGDNRIVQAVKNGELKEEVLDKAVERLLNIIFKAVDNKKEGAVYDREQHHSLARKIAGECMVLLKNEDNILPLKKEGKIAVIGGFVDKYRYQGGGSSHIKPNKLDNAAEELKKAAKGENIVFAKGFSLDNDEVDSKLMEEAKNAAASAETAVIFAGLPDRYESEGYDRSHMRIPDNQIALINAIAEVQKNIVVVLSNGSPIEMPWIGNVKGILEAYLGGEAGAGAIADILFGEVNPSGKLAESFPKKLSDNPSYLNFPGEGDTVEYKEGLFVGYRYYDKKEVETLFPFGYGLSYTTFEYKNITVDKKNITDEEKLVVKVTVKNTGKLTGKEIVQLYVRDVESSVIRPVKELKGFEKVELAAGEEKTVEFVLDKRTFAYYNVDIKDWYVESGDFEILIGSSSKDIYLKDVVNVEGTTAVKKIYTRNSTVGDVMANPQARKLTEELLSSTFGQGTDDSENLGTDMTAMMKDMTLRSILHFGGDKSKEKELDKILEMLNK
B4: 842 (protein, listed as Nonomuraea sp.)
chain: MNLQDKASLLSGRDFWSTKPVGDVPAAVLSDGPHGVRRQTGEADHVGIHESLPATCFPPAVAVGSSWDPAVAGRLAAAVAVEARALDVQINLGPGVNIKRSPLCGRNFEYYSEDPLLTGVLAAAHVEALQAGGVGASVKHFAANNQETGRMRVSAEIDERTLREIYLPAFERVVKHARPATVMAAYNKVNGVYASQHPWLLTRVLREEWGFDGVVVSDWGAVNDRVAALKAGLDLEMPGNPANDAMIVQAVRDGELDEAVVDRSVARVRAMVRAWRPEPAAFDADAHHALARELAAECAVLLKNDGDTLPIRADVQTIAVLGPFATEPRFQGGGSSHVTPTRVDSPLEEIRRLAGDRVVTADPDDADLAIVFAGPADLDESEGYDRAGLDLPAEQVELIRATAAAARRTVVVLSNGGVVSLEGWHDEVDAILEGWLLGQAGGGAIADLLFGVAAPSGRLAETIPMRLQDTASYLNFPGEQDVVRYGEGVMVGYRYHETAGRPVRYPFGHGLTYTTFAVSDLTVRVTGDDSARVSVTVANTGRRYGKHVVQLYVATQAGPVRRPARELRAFTKVGLEPGRSTTVTFDLDARAFAYWDVKEGRWLVAPGDYTVQIGENASAVVAEETIELAGEVIARELTLDSSVGEWFAHPQVGPVLMRHVAATMTEEQRAAAAEHQDLLRMIESLPMHQFLSPMGVRLPDQAVREMMELSRRPQ
B5: 885 (protein, listed as Bifidobacterium indicum)
chain: MTTDKHLQAKDLDIEKEASLTSGSDAWHLQGVPDQGYPEYMITDGPYGLRKATGSDVYGSVPATCFPPTAGLASSWNPDLTYQVGQAMGEECIQEEVAVILGPGINIKRSPLGGRNFEYYSEDPVLAGHQAAGLVDGVQSKGVGTSLKHFAANNQETDRLRVSSDIDERTLREIYLPAFEYVVKHAKPWTIMCAYNKLNGVYGSENRWLLTDVLRGEWGYQGLVMSDWGAVHDRAAALRAGLNLEMPPSASDHEVVEAVRAGNLDKDQLDRMAQGVLDLIEKAKPAMSQKGYRYDVEAHDQVARQAAQESIVMLKNEDGVLPLAPGEKVALIGEFARTPRYQGGGSSHITPTKVTTALDSFKETGMDVDFVPGFTLDEAPQDQSLTDQAVKAAADADKVVLFLGLPEDAESEGFDRTDIDLPTKQLDLLRAVSQVNDQVVVVLSNGSVVSVVDWLPQAKAVLESWLLGQAGGQAVVDILTGGANPSGRLPETIPVRLEDNPSITSFPGEEGHSRYGEGIYVGYRYYDTFNKPVAFPFGFGLSYSTFEISNVRVEKTGPNAVRVDLTVTNTSGIDGAETVQVYVAPCASKVGRPSHELKSFAKVFLKAGESQEISLDLDERDFAYWSTAMNEWHVEAGTYGIEVGTSSRDLVSKLDVDLDGDGLFVRLNSNSTMEEWREDQVGGPIMKSHVEGGKVPLPNDPNTAKLFDSMPLASVITLSGGDGNSVVADMITDYQKAIEQQGLTGASRGSE
B6: 857 (protein, listed as Streptomyces venezuelae)
chain: MTETGAHTAADAARESVVEAALAKLDLDSKTRLLAGQDMWSLPALPEIGLTSLVMSDGPIGVRGVRWTADDPSVALPSPTALAAAWDPALARRAGRLLAQEARRKGVHVLLAPTVNLHRTPLGGRHFEAYSEDPLLTGAIGTGYVQGVQDGGVGTTVKHFVANDAETDRFTVDNRIAPRPLRELYLAPFEAIVKNAHPWGIMTAYNQVNGVTMTEHRHLVNEVLRGEWGFDGFNVSDWMAARSTTGDIEGGLDVAMPGPQTVYGEALAAAVRAGEVEESTVDAAVRNVLRLAARVGALEGAPPVVTDPPAAIDGDALAREIAHRGFVLVRNENGALPLKNGTVALSGAAARDARVLGGGSAQVFPEHIVSPLDGLTAALPEGALTYTIGADPSDELTPADQGFTLRAVCRDASGTVLGEGTLPNGQVQWIGDDLPAGVTHEALASIEVVGRFTPRETGEHAFGTRGLGAFRLSVDGETLFDGVQALGPETDPFEAFFGSPVERAKVVLTAGETVDVSLLHTLDKEFAAPLPAVMFSFVHLGPRRDPDELIAEAVEAARAADTAVVVVATTERVESEGFDRKDLALPGRQDDLVRAVAAANPNTVVVVNAGSPVELPWREEVAAVLLSWFPGQEGGAALADVLTGAEEPGGRLPTTWPAALADAPVTEVTPTGGELDYAEGVFIGYRAWDKAGAVPAYAFGHGLGYTTWTYESLTARPGTATVRLTNTGDRPGREVVQVYLAPVDDGVERPARWLAGFGCVEAGPGETVETEIALPRRAFEIWDEEKNDWSFVGGAYEVLAARSLTDARLSATLEV

Assays:
Assay type in all cases: biochemical, Quillaja saponaria
[1] = Experiment 5-2: screening of additional glucosidases for deglycosylation with QS-18 in crude bark extract (80%) at pH 6 and 35 deg C; settings: CBE 80%, pH 6, 35 deg C, 18 hours; UV HPLC
Method: A plate was lysed at pH 6 as described in Experiment 4-2. 40 uL of clarified lysate was transferred to a reaction plate
The pH of CBE was adjusted to pH 6 by dropwise addition of 2M NaOH with stirring. 160 uL of pH 6 CBE was added to each well of the reaction plate. The reaction plate was sealed and incubated at 35 deg C. with shaking for 18 hours.
The reaction plate was quenched by adding 200 uL of MeCN (2% acetic acid (AcOH), 1 mg/mL hexanophenone) to each well of the plates. The quenched reaction plate was re-sealed and incubated at 20 deg C. with shaking for 10 min. The reaction plate was then centrifuged (10 min, 4 degC).
200 uL was transferred from each well of the quenched plate to the corresponding wells of a fresh 96 well plate and sealed. The plate was analysed by UV HPLC with the method of Experiment 4-4.

[2] = Experiment 5-3: screening of additional glucosidases for deglycosylation with QS-18 in treated bark extract (80%) at pH 6 and 35 deg C; settings: TBE 80% (QS-21 approx. 4 g/L), pH 6, 35 deg C; UV HPLC
Method: Experiment 5-1 was repeated, replacing CBE with Treated Bark Extract (TBE) at pH 6. TBE was prepared from CBE by PVPP treatment and concentration, to provide TBE with a QS-21 concentration of approximately 4 g/L. TBE was adjusted to pH 6 by dropwise addition of 2M NaOH with stirring.

[3] = Experiment 5-1: screening of additional glucosidases for deglycosylation with purified QS-18 (0.04 mg/ml) at pH 7.5 and 30 deg C; settings: pH 7.5, 30 degrees C, 18 hours, LCMS/MS
Method: The 94 additional genes, together with positive control (DNA encoding SEQ ID No. 262) and negative control, were transformed, expressed, lysed and reacted in the same manner as described above for Experiment 4-1, except the reaction was incubated at 30 degrees C. for 18 hours.
Samples were analysed by LCMS/MS according to the procedure in Experiment 4-1.

| Molecule | Experiment 5-2 % conv [1] [%] | Experiment 5-3 % conv [2] [%] | Experiment 5-1 % conv [3] [%] |
| --- | --- | --- | --- |
| B1 | <0.5 | <0.5 | 55.5 |
| B2 | <0.5 | <0.5 | 58.4 |
| B3 | <0.5 | 2.5 | 67.7 |
| B4 | <0.5 | <0.5 | 64.0 |
| B5 | <0.5 | <0.5 | 54.8 |
| B6 | <0.5 | <0.5 | 69.0 |
